# Results taken from IntAct's records for PubMed 11359767.
# B1: E3 ubiquitin-protein ligase NEDD4 (Homo sapiens), P46934 (parent)
# chain: MAQSLRLHFAARRSNTYPLSETSGDDLDSHVHMCFKRPTRISTSNVVQMKLTPRQTALAPLIKENVQSQERSSVPSSENVNKKSSCLQISLQPTRYSGYLQSSNVLADSDDASFTCILKDGIYSSAVVDNELNAVNDGHLVSSPAICSGSLSNFSTSDNGSYSSNGSDFGSCASITSGGSYTNSVISDSSSYTFPPSDDTFLGGNLPSDSTSNRSVPNRNTTPCEIFSRSTSTDPFVQDDLEHGLEIMKLPVSRNTKIPLKRYSSLVIFPRSPSTTRPTSPTSLCTLLSKGSYQTSHQFIISPSEIAHNEDGTSAKGFLSTAVNGLRLSKTICTPGEVRDIRPLHRKGSLQKKIVLSNNTPRQTVCEKSSEGYSCVSVHFTQRKAATLDCETTNGDCKPEMSEIKLNSDSEYIKLMHRTSACLPSSQNVDCQININGELERPHSQMNKNHGILRRSISLGGAYPNISCLSSLKHNCSKGGPSQLLIKFASGNEGKVDNLSRDSNRDCTNELSNSCKTRDDFLGQVDVPLYPLPTENPRLERPYTFKDFVLHPRSHKSRVKGYLRLKMTYLPKTSGSEDDNAEQAEELEPGWVVLDQPDAACHLQQQQEPSPLPPGWEERQDILGRTYYVNHESRRTQWKRPTPQDNLTDAENGNIQLQAQRAFTTRRQISEETESVDNRESSENWEIIREDEATMYSNQAFPSPPPSSNLDVPTHLAEELNARLTIFGNSAVSQPASSSNHSSRRGSLQAYTFEEQPTLPVLLPTSSGLPPGWEEKQDERGRSYYVDHNSRTTTWTKPTVQATVETSQLTSSQSSAGPQSQASTSDSGQQVTQPSEIEQGFLPKGWEVRHAPNGRPFFIDHNTKTTTWEDPRLKIPAHLRGKTSLDTSNDLGPLPPGWEERTHTDGRIFYINHNIKRTQWEDPRLENVAITGPAVPYSRDYKRKYEFFRRKLKKQNDIPNKFEMKLRRATVLEDSYRRIMGVKRADFLKARLWIEFDGEKGLDYGGVAREWFFLISKEMFNPYYGLFEYSATDNYTLQINPNSGLCNEDHLSYFKFIGRVAGMAVYHGKLLDGFFIRPFYKMMLHKPITLHDMESVDSEYYNSLRWILENDPTELDLRFIIDEELFGQTHQHELKNGGSEIVVTNKNKKEYIYLVIQWRFVNRIQKQMAAFKEGFFELIPQDLIKIFDENELELLMCGLGDVDVNDWREHTKYKNGYSANHQVIQWFWKAVLMMDSEKRIRLLQFVTGTSRVPMNGFAELYGSNGPQSFTVEQWGTPEKLPRAHTCFNRLDLPPYESFEELWDKLQMAIENTQGFDGVD
# partner: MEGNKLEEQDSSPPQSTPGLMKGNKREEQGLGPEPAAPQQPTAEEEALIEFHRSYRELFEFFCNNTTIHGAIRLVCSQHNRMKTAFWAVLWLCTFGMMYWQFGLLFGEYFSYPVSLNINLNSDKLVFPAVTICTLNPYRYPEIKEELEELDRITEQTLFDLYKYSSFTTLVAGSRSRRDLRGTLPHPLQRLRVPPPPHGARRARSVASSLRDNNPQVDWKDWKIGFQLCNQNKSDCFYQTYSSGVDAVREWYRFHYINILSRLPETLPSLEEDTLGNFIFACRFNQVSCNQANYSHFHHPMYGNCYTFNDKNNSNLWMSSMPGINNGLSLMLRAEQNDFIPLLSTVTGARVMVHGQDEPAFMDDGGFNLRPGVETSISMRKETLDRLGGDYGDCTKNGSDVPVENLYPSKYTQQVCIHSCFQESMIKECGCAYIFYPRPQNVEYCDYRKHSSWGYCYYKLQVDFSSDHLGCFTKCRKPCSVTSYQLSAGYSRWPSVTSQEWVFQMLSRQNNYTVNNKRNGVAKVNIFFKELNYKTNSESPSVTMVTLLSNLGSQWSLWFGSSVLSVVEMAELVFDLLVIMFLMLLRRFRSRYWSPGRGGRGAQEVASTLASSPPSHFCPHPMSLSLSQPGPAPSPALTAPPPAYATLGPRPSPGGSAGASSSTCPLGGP
# Variants of: B1
# Settings: with scnna_human SCNN1A
row,Variant,effect of a mutation on the interaction
1,V629W;H631G;V786W;H788G;I911W;H913G,with no effect
2,V629W;H631G;I859W;H861G;I911W;H913G,disrupting interaction strength
3,V629W;H631G;V786W;H788G;I859W;H861G;I911W;H913G,disrupting interaction strength
4,V786W;H788G,with no effect
5,I911W;H913G,with no effect
6,V786W;H788G;I859W;H861G;I911W;H913G,disrupting interaction strength
7,V629W;H631G,with no effect
8,V629W;H631G;V786W;H788G;I859W;H861G,disrupting interaction strength
9,I859W;H861G,disrupting interaction strength
